B1: LINE1-full (parent)
chain: UACGUAGGUGGUUUUCCCCUGAUAGUGCUAAGGGGGCCUGGAAGUUUGGACUGGGCAGAGCUCAACACAGCGUGGCAAAGUGGCUGUGGCUAGACUGCCUCUCUGGAUUCCUCGUCACUCAGCAGGGCAUCUCUGAGAGAAAUGCC

Variants of: B1
Assay: self-cleavage, relative activity (ratio to wild type); higher = more cleavage; in vitro, sequencing; the parent is a self-cleaving ribozyme

With G36A C84U as the variant, how does the self-cleavage read?
Its self-cleavage is 0.15.

With A50G G83A as the variant, how does the self-cleavage read?
Its self-cleavage is 0.28.

For A24G U108A, which self-cleavage is on record?
The self-cleavage was 1.49.

With C123U A138G as the variant, how does the self-cleavage read?
The self-cleavage was 1.91.

With U52C A129G as the variant, how does the self-cleavage read?
The self-cleavage was 1.23.

With A42G U81C as the variant, how does the self-cleavage read?
Its self-cleavage is 1.55.

With U14A A140G as the variant, how does the self-cleavage read?
Its self-cleavage is 0.91.

With U47A U96A as the variant, how does the self-cleavage read?
The self-cleavage was 0.08.

With U46A A64C as the variant, how does the self-cleavage read?
Its self-cleavage is 0.24.

For U12C A138G, which self-cleavage is on record?
Its self-cleavage is 1.37.

With G48A A69C as the variant, how does the self-cleavage read?
Its self-cleavage is 0.02.

For U39A C66U, which self-cleavage is on record?
The self-cleavage was 0.05.

With A31G U39A as the variant, how does the self-cleavage read?
The self-cleavage was 0.49.

Which self-cleavage does the source give for C103U A121G here?
Its self-cleavage is 1.58.

With U29A C51A as the variant, how does the self-cleavage read?
Its self-cleavage is 1.65.

For G86A A136G, which self-cleavage is on record?
The self-cleavage was 0.09.

Which self-cleavage does the source give for C68U A140U here?
Its self-cleavage is 0.22.

Which self-cleavage does the source give for A50G G144A here?
The self-cleavage was 1.46.

Which self-cleavage does the source give for A50G G144C here?
Its self-cleavage is 0.83.

Which self-cleavage does the source give for A24G here?
The self-cleavage was 1.17.

Which self-cleavage does the source give for C3A U13C here?
Its self-cleavage is 1.15.

With U15C G114C as the variant, how does the self-cleavage read?
The self-cleavage was 1.59.

With U14C A78G as the variant, how does the self-cleavage read?
Its self-cleavage is 1.22.

With U46G G144U as the variant, how does the self-cleavage read?
Its self-cleavage is 0.95.

Which self-cleavage does the source give for A6C A121U here?
Its self-cleavage is 1.18.

Which self-cleavage does the source give for U73A A117C here?
Its self-cleavage is 1.99.

With C18A U62C as the variant, how does the self-cleavage read?
The self-cleavage was 0.11.

For C95U U132C, which self-cleavage is on record?
The self-cleavage was 0.21.

For U15A U102A, which self-cleavage is on record?
The self-cleavage was 1.05.

For C61U A117G, which self-cleavage is on record?
The self-cleavage was 0.05.

Which self-cleavage does the source give for U14C U39G here?
Its self-cleavage is 0.36.

Which self-cleavage does the source give for A92U U102C here?
Its self-cleavage is 0.3.

Which self-cleavage does the source give for U1C U85C here?
Its self-cleavage is 0.2.

Which self-cleavage does the source give for G4A G127A here?
The self-cleavage was 1.67.

Which self-cleavage does the source give for G106U A138G here?
The self-cleavage was 0.99.

For U73A C110A, which self-cleavage is on record?
Its self-cleavage is 0.94.

Which self-cleavage does the source give for G74A G89A here?
The self-cleavage was 0.03.

Which self-cleavage does the source give for U5C U119C here?
The self-cleavage was 1.41.

With U26A A67G as the variant, how does the self-cleavage read?
Its self-cleavage is 0.4.

Which self-cleavage does the source give for G41A U108C here?
The self-cleavage was 1.23.

With G49U A140U as the variant, how does the self-cleavage read?
The self-cleavage was 0.8.

For U5A A31G, which self-cleavage is on record?
The self-cleavage was 0.82.

With C3U A124U as the variant, how does the self-cleavage read?
The self-cleavage was 1.

With A6G U73A as the variant, how does the self-cleavage read?
Its self-cleavage is 1.11.

Which self-cleavage does the source give for U15C C66U here?
The self-cleavage was 0.04.

For G32A A59G, which self-cleavage is on record?
Its self-cleavage is 0.02.

Which self-cleavage does the source give for U15C G93U here?
The self-cleavage was 0.09.

Which self-cleavage does the source give for G82A A124G here?
Its self-cleavage is 1.3.

With G70A U132G as the variant, how does the self-cleavage read?
Its self-cleavage is 0.19.

For U26A A78U, which self-cleavage is on record?
The self-cleavage was 1.61.

For U12G A43C, which self-cleavage is on record?
Its self-cleavage is 1.02.

For A138U A140U, which self-cleavage is on record?
Its self-cleavage is 0.84.

With G8A U104C as the variant, how does the self-cleavage read?
Its self-cleavage is 1.29.

With U9A U39C as the variant, how does the self-cleavage read?
The self-cleavage was 0.25.

Which self-cleavage does the source give for A24U A31U here?
The self-cleavage was 1.09.

For U14C U109C, which self-cleavage is on record?
Its self-cleavage is 1.25.

With A50C U112C as the variant, how does the self-cleavage read?
Its self-cleavage is 1.36.

With U47A C99U as the variant, how does the self-cleavage read?
The self-cleavage was 0.3.

With U39A U102C as the variant, how does the self-cleavage read?
The self-cleavage was 1.72.

Which self-cleavage does the source give for G93A G105U here?
The self-cleavage was 0.02.

With G80A A140U as the variant, how does the self-cleavage read?
Its self-cleavage is 1.58.

With U20C U81C as the variant, how does the self-cleavage read?
The self-cleavage was 1.13.

Which self-cleavage does the source give for A31G U109C here?
The self-cleavage was 0.79.

Which self-cleavage does the source give for A43G A59U here?
Its self-cleavage is 0.82.

For A67G U130C, which self-cleavage is on record?
The self-cleavage was 0.65.

Which self-cleavage does the source give for G8A U20C here?
Its self-cleavage is 1.59.

Which self-cleavage does the source give for G60A U143C here?
The self-cleavage was 0.

For A42G A92U, which self-cleavage is on record?
Its self-cleavage is 0.72.

For U13A U62A, which self-cleavage is on record?
Its self-cleavage is 0.06.

With G54A G82A as the variant, how does the self-cleavage read?
The self-cleavage was 0.9.

Which self-cleavage does the source give for U14A U73A here?
Its self-cleavage is 1.39.

Which self-cleavage does the source give for A117U A124C here?
The self-cleavage was 1.77.

Which self-cleavage does the source give for A117U A124U here?
Its self-cleavage is 1.26.

Which self-cleavage does the source give for U15C U85C here?
The self-cleavage was 0.34.

Which self-cleavage does the source give for G21U U73C here?
The self-cleavage was 2.04.

Which self-cleavage does the source give for A64U U109C here?
The self-cleavage was 0.25.

For G27A U134C, which self-cleavage is on record?
The self-cleavage was 1.58.

With U20A U100C as the variant, how does the self-cleavage read?
The self-cleavage was 1.49.

Which self-cleavage does the source give for U13C U96G here?
Its self-cleavage is 0.06.

For A65U A92G, which self-cleavage is on record?
The self-cleavage was 0.03.

Which self-cleavage does the source give for A142G G144A here?
The self-cleavage was 1.44.

With U112G C116A as the variant, how does the self-cleavage read?
Its self-cleavage is 1.57.

With A78G A138U as the variant, how does the self-cleavage read?
The self-cleavage was 1.

For U104C C120U, which self-cleavage is on record?
The self-cleavage was 1.45.

Source: the RNAGym collection of RNA variant scans (doi:10.7554/elife.90254)
